Experimental data: patent publication US20250188161A1

B1: LMT-2 (6D12) (antibody, V domains shown)
VH: EVQLVESGGGLVQPGGSLRLSCAASGFTFSNYGVHWVRQAPGKGLEWVSHISAAGISRYYADAVKGRFTMSRDNGKNTLYLQMNGLKSEDTAVYYCAKDRIRSSYEYDSWGQGTQVTVSS
VL: LPVLTQLSSMSGSPGQTVTITCTGSSSNIGGGYYLSWYQQLPGTAPKLLIYNANNRASGVPNRFSGSKSGNLASLTITGLQAEDEADYYCGCYDSSLSTGYVFGGGTKLTVL
B2: LMT-9 (20G3) (antibody, V domains shown)
VH: LQLVESGGGLVQPGGSLRLSCAASGFTFSRSGMAWVRQAPGKGLEWVSAITPGGTATYYANSVKGRVTMSRDNAKNTLYLQMNSLKSEDTAVYYCAKGLVSSGLNGMDYWGKGTLVTVSS
VL: QSVLTQLSSMSGSPGQTVTITCTGSSSNIGGGYYLSWYQQLPGTAPKLLIYNTNNRASGVPNRFSGSKTGSLASLTITGLQAEDEADYYCGCYDDSLNTYVFGGGTKLTVL
B3: LMT-12 (14D7) (antibody, V domains shown)
VH: EVQLVESGGGLVQPGGSLRLSCAASGFTFSSYYMYWVRQAPGKGLEWVSGTSIGGGSTWYADSVKGRFTISRDNAKNTLYLQMNNLKSEDTAVYYCAKDLNSRSYKGMGDWGQGTQVTVSS
VL: QPALTQLSSMSGSPGQTVTITCTGSSSNIGGGYYLNWYQQLPGAAPKLVIYNANNRASGVPDRFSGSKSGNLASLTITGLQAEDEAVYFCGCYDSSLSSVVFGGGTHLTVL
B4: LHT-18 (14E7) (antibody, V domains shown)
VH: QVQLVESGGGLVQPGGSLRLSCAASGFTFSHYWMYWVRQAPGKGLEWVSAINTGGGITYYTDSVKGRFTVSRDNAKNTLYLQMNSLKSEDTAVYYCAKSRYGVVITTTYFGGVDYWGKGTLVTVSS
VL: SSALTQPSAVSVSLGQTARITCQGGNFGSYYASWYQQKPGQAPVQVIYGNSNRPSGIPERFSGSSSGDTATLTISGAQAEDEADYYCLSYESSGYAVFGGGTHLTVL
B5: LMT-10 (20G4) (antibody, V domains shown)
VH: QVQLVESGGGLVQPGGSLTLSCAASGFTFSNYYMTWVRQAPGKGLEWVSSIYSTGSHTYYADSVKGRFTISRDNAKDTLYLQMNDLKSEDTAVYYCAKNIYTYYTAHYAGMDYWGKGTLVTVSS
VL: QSALTQPSTVSVSLGQMARITCQGGSLGSYDAHWYQQKPGQAPVLVIHDDNSRPSGIPERFSGSRSGGTATLTISGAQADDEGVYFCHSYDSSANAPVFGGGTELTVL
B6: LHT-22 (15A2) (antibody, V domains shown)
VH: ELQLVESGGGLVQPGGSLRLSCAASGFTFDDYTMNWVRQAPGKGLEWVSAIRWNGVTTYYAESMKGRFTVSRDNGNNTLYLQMNSLKAEDTAVYYCAKGGSIDLTYGMDYWGKGTLVTVSS
VL: QAVVTQEPSLSVSPGGTVTITCGLSSGSVTRNNYPDWYQQTPGQAPRLLLYNTVARHSGVPSRFSGSISGNKAALTITGAQPEDEAGYYCALYMYTGSNNGRVFGGGTLLTVL
B7: LHT-15 (13E7) (antibody, V domains shown)
VH: EVQLVESGGDLVQPGGSLRLSCAASGFTFSSYWMDWVRQAPGKGLEWVSRITNSGGTAFYTDSVEGRFTISRDNAKNTLYLQMNSLKSEDTAVYYCLRYITRAQLMGAWDYWGQGTQVTVSS
VL: ATMLTQSPGSLSVVPGESASISCKASQSLVHTDGKTYLSWLLQKPGQRPQLLIYQVSNRASGVPDRFTGSGSGTDFTLKISGVKAEDAGVYYCAQSTYYPYDFGSGTRLEIR

What follows are binders tested against HA-tagged mouse-human-mouse chimeric TGF-β1, mouse LAP residues 201-222 replaced by the corresponding human LAP segment, on HEK-293T cells co-transfected with GARP (mouse; human) (UniProt P04202) (assay: flow cytometry, HEK-293T cells co-transfected with mGarp and the HA-tagged TGF-β1 construct).
Binder B1 has a % binding relative to WT TGF-β1 (100 %) of 2%. For B2, the % binding relative to WT TGF-β1 (100 %) was 2%. B3 showed a % binding relative to WT TGF-β1 (100 %) of 3%. For B4, the % binding relative to WT TGF-β1 (100 %) was 63%. Binder B5 has a % binding relative to WT TGF-β1 (100 %) of 126%. Work on B6 yielded a % binding relative to WT TGF-β1 (100 %) of 89%.

The binders below were run against HA-tagged mouse-human-mouse chimeric TGF-β1, mouse LAP residues 87-135 replaced by the corresponding human LAP segment, on HEK-293T cells co-transfected with GARP (mouse; human) (UniProt P04202) in the same assay as above.
With B1 the % binding relative to WT TGF-β1 (100 %) was 157%. With B2 the % binding relative to WT TGF-β1 (100 %) was 164%. Binder B3 has a % binding relative to WT TGF-β1 (100 %) of 99%. In the case of B5, the % binding relative to WT TGF-β1 (100 %) is reported as 158%. B7 gave a % binding relative to WT TGF-β1 (100 %) of 101%.

What follows are binders tested against HA-tagged mouse-human-mouse chimeric TGF-β1, mouse LAP residues 223-278 replaced by the corresponding human LAP segment, on HEK-293T cells co-transfected with GARP (mouse; human) (UniProt P04202) in the same assay as above.
In the case of B1, the % binding relative to WT TGF-β1 (100 %) is reported as 115%. Binder B2 has a % binding relative to WT TGF-β1 (100 %) of 126%. B3 was tested, and the % binding relative to WT TGF-β1 (100 %) was 89%. In the case of B5, the % binding relative to WT TGF-β1 (100 %) is reported as 99%.

The binders below were run against HA-tagged mouse-human-mouse chimeric TGF-β1, mouse LAP residues 136-200 replaced by the corresponding human LAP segment, on HEK-293T cells co-transfected with GARP (mouse; human) (UniProt P04202) in the same assay as above.
B1 showed a % binding relative to WT TGF-β1 (100 %) of 155%. In the case of B2, the % binding relative to WT TGF-β1 (100 %) is reported as 108%. B3 showed a % binding relative to WT TGF-β1 (100 %) of 105%.
